What was measured:
[1] = target: SARS-CoV-2 nonstructural protein 13 (CoV-2 Nsp13) (SARS-CoV-2, UniProt P0DTD1 5325-5925); assay: fluorescence anisotropy; Fluorescence anisotropy, 50 mM Tris-HCl pH 7.0 with 300 mM NaCl ([…]) or 20 mM NaCl ([…]; temperature not stated; details: protein: recombinant; tags: 6xHis-SUMO, removed with SUMO protease; label: 3'-FAM (fluorescein); single strand, 43 nt
[2] = target: SARS-CoV-2 nucleocapsid protein (CoV-2 N) (SARS-CoV-2 (2019-nCoV), UniProt P0DTC9 1-419); assay: fluorescence anisotropy; 300 mM NaCl; 5 nM DNA; Kd was fitted but its value is only in Figure 7A; Fluorescence anisotropy, 50 mM Tris-HCl pH 7.0 with 300 mM NaCl (N) or 20 mM NaCl (Nsp13); 5 min equilibration, second reading after 10 min; temperature not stated; details: protein: recombinant; chain copies: 2; label: 3'-FAM (fluorescein); single strand, 43 nt

## CTGTAGGAATGTGAAATAAAAACGATGTTTTATTTACATTGTA (ssDNA) [S43]
[1]
  binding result: binds
[2]
  binding result: binds

From paper PMC9354549, “SARS-CoV-2 Nucleocapsid Protein Has DNA-Melting and Strand-Annealing Activities With Different Properties From SARS-CoV-2 Nsp13”
